For assay [1], the target named is hNedd4L-WW3* domain (third WW domain of human Nedd4-like protein, GST tag removed) (human) (UniProt Q96PU5). Kind of assay: ITC; peptide titrated into the cleaved WW domain (40 to 150 uM) in the cell; 10 mM sodium phosphate, pH 7.4, 25 °C; MicroCal VP-ITC; bimolecular interaction model; three runs (further runs with 100 mM and 500 mM NaCl told in words only).
The target of another assay is Fyn SH3 (Homo sapiens) (UniProt P06241). The conditions noted are these: cited from earlier work.
Assay [2] concerns the target hNedd4-WW3* domain (third WW domain of human Nedd4, GST tag removed) (human) (UniProt P46934). Kind of assay: ITC; peptide titrated into the cleaved WW domain (40 to 150 uM) in the cell; 10 mM sodium phosphate, pH 7.4, 25 °C; MicroCal VP-ITC; bimolecular interaction model; three runs (further runs with 100 mM and 500 mM NaCl told in words only). In general terms: ITC needs no label: the signal is the heat of the interaction.

Assay [3] deals with rNedd4-WW2 domain (second WW domain of rat Nedd4, GST tag removed) (rat) (UniProt Q62940). The description is as above.
In assay [4] the target is rNedd4-WW3/4 domain (third WW domain of rat Nedd4, GST tag removed) (rat) (UniProt Q62940). The description is as above.

pKd: −log10 of the molar value.

hNedd4-WW3* domain (third WW domain of human Nedd4, GST tag removed) (human), sequence (P46934 whole entry, the tested form may be a part): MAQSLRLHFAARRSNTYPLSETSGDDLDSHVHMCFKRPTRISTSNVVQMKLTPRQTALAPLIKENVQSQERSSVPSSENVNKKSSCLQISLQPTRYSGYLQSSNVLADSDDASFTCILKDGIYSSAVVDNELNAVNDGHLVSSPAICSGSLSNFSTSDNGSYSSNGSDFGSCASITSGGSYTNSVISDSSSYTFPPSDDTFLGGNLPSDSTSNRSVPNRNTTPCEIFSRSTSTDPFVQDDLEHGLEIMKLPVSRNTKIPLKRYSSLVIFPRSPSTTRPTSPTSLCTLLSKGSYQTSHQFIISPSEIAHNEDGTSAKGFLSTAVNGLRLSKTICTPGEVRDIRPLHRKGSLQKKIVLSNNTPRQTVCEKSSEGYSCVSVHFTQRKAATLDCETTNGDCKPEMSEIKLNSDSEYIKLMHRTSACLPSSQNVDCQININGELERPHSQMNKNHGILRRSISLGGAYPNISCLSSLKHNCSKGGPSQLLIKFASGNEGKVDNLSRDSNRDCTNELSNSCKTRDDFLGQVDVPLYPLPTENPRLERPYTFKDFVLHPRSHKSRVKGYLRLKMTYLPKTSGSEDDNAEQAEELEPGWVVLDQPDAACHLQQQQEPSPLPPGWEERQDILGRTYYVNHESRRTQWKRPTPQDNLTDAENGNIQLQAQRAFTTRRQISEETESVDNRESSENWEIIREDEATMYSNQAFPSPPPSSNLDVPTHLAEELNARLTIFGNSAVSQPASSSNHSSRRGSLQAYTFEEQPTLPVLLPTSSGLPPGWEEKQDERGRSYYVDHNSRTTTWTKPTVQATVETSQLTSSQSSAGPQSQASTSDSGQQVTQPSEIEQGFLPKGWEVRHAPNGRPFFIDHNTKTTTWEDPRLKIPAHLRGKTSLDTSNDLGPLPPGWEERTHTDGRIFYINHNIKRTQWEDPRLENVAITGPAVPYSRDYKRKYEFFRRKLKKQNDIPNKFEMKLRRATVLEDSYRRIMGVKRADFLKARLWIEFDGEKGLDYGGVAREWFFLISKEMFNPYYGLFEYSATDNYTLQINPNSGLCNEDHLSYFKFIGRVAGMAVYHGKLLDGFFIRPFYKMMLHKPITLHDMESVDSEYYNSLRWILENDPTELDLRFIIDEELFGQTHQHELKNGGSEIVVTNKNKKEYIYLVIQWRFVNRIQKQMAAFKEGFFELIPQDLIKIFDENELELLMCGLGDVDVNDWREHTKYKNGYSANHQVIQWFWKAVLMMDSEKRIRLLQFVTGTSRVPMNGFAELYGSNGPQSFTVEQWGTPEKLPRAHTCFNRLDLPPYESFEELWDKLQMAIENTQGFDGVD
rNedd4-WW2 domain (second WW domain of rat Nedd4, GST tag removed) (rat), sequence (Q62940 whole entry, the tested form may be a part): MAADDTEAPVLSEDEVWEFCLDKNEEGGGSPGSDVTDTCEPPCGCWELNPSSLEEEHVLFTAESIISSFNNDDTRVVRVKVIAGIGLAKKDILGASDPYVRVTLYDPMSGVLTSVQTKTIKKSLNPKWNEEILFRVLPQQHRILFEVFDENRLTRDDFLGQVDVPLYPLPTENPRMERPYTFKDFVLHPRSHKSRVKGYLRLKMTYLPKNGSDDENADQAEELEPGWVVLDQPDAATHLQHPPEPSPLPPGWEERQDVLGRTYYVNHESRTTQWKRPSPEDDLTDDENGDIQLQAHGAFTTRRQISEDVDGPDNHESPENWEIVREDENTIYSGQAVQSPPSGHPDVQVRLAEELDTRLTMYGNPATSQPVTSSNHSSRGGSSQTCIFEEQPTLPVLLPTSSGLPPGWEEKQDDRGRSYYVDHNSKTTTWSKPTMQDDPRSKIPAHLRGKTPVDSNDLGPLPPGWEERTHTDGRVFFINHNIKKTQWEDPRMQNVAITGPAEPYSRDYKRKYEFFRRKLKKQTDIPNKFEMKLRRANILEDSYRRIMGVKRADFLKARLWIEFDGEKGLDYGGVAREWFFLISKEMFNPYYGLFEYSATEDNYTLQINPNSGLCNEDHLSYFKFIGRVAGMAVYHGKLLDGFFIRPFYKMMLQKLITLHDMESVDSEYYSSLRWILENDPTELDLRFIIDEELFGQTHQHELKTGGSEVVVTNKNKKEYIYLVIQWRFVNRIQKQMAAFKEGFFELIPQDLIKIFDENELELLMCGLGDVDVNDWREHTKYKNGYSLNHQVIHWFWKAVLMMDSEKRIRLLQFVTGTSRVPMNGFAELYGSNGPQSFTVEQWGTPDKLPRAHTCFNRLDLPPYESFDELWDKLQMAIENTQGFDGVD
hNedd4L-WW3* domain (third WW domain of human Nedd4-like protein, GST tag removed) (human), sequence (Q96PU5 496-539): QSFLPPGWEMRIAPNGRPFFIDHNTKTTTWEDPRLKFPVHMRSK
rNedd4-WW3/4 domain (third WW domain of rat Nedd4, GST tag removed) (rat), sequence (Q62940 452-499): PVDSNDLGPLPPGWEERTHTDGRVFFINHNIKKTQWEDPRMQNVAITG
Fyn SH3 (Homo sapiens), sequence (P06241 79-146): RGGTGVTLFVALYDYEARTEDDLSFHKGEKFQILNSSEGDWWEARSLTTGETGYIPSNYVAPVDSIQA

Regarding Nogo-A PY motif peptide, in assay [1], the pKd (commonly the negative decadic logarithm of the Kd, by convention in mol/L) was 5.40 and the dH is -13.8 kcal/mol.

On to U24-6A (from UniProt Q69559), for which the negative logarithm of the Kd (pKd) with Fyn SH3 (Homo sapiens) was 2.30.

As for “U24-6A peptide (15-mer, N-terminus of U24 from HHV-6A) (from UniProt Q69559 1-15)”, the negative logarithm of the Kd (pKd) was 5.01 in assay [2] and 3.81 in assay [3]. For the same substance, the dH in assay [2] was -12.7 kcal/mol; in assay [3], -12.9 kcal/mol.

Consider “U24-7 peptide (15-mer, N-terminus of U24 from HHV-7)”, for which the pKd was 4.68 in assay [4], 5.70 in assay [2] and 4.06 in assay [3]. In addition, the dH in assay [4] was -15.2 kcal/mol; in assay [2] it was -16.8 kcal/mol; in assay [3], -18.2 kcal/mol.

The values above are taken from PMC5209733, “U24 from Roseolovirus interacts strongly with Nedd4 WW Domains” (Scientific Reports, 2017).
